Measured values taken from US8034783B2, “Prodomain modulators of ADAM 10” (Biozyme, Inc., priority 2006, dated 2011).

Assays:
Type in all cases: biochemical
[1] = target: T1, human ADAM 9 catalytic/disintegrin domains (Homo sapiens, UniProt Q13443); assay: Inhibition assay with ADAM 9; conditions: read-out: inhibition constant, ADAM 9 (human)
T1 construct: human ADAM 9 catalytic/disintegrin domains activity; purchased R & D Systems (Minneapolis, Minn., USA)
T1 sequence (Q13443 206-697 limits assumed): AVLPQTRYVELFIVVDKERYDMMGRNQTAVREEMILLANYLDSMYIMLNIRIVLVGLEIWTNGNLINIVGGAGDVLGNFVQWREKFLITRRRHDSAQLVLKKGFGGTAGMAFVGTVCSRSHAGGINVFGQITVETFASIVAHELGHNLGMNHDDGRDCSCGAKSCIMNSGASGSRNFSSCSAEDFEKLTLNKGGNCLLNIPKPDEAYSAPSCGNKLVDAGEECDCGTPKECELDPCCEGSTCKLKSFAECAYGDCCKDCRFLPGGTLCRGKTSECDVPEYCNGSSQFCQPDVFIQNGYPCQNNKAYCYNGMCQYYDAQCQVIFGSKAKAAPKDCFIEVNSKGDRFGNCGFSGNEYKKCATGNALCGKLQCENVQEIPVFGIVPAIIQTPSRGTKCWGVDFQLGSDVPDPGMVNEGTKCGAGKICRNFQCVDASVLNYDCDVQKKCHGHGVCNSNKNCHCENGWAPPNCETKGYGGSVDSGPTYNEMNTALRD
Protocol: Inhibition assays with ADAM 9. The fluorescent substrate, Dabcyl-PchaGC(Me)HAK(Fam)-NH2 (SEQ ID NO 19) (10 μM), in a buffer containing 25 mM Tris, pH 8.0, 0.0006% Brij-35, was used to measure human ADAM 9 catalytic/disintegrin domains activity. The ADAM 9 was provided as a 0.1 μg/μl stock solution, from which 3 μl was added to start the reaction in the absence or presence of ADAM10 prodomain (78-5000 nM). Fluorescence intensities were measured every 10-20 minutes at excitation and emission wavelengths of 485 and 530 nm respectively.
Calculation of inhibition constants. The amount of activity was calculated by subtracting the ADAM 10 prodomain control from the ADAM 10 prodomain with enzyme. All inhibition assays were performed at room temperature and the data fit to the following equation using Sigma Plot software:
[formula] where If is fractional inhibition, I is the inhibitor concentration and Ki is the inhibition constant.

[2] = target: T2, mouse ADAM 10 catalytic domain (Mus musculus, UniProt O35598); assay: Inhibition of mouse ADAM 10 catalytic domain (unpublished observation)
T2 construct: mouse ADAM 10 catalytic domain (unpublished observation)
T2 sequence (O35598 221-457 limits assumed): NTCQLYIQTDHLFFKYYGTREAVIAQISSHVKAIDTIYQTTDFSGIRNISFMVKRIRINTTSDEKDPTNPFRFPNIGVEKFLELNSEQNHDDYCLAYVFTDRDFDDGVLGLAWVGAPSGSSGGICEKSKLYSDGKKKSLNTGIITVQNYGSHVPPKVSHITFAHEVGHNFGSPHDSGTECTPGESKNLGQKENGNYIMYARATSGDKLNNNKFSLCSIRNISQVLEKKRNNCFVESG
Protocol: Mechanism of ADAM 10 prodomain inhibition. For metalloproteinases that exist as zymogens, the presence of a cysteine in their prodomains is often necessary for inhibition of catalytic activity. […] For some of the ADAM family members, the cysteine is required for efficient inhibition of the enzyme. Therefore, a test was conducted to determine whether the cysteine in the putative cysteine switch of ADAM10 prodomain affected the potency of inhibition by preparing a C-terminal His tag construct with the only cysteine mutated to serine. […] The wild type prodomains (23-213), containing either the N- or C-terminal His tags, were both efficient inhibitors of ADAM10 (Table II), with inhibition constants of 75 and 48 nM respectively.

[3] = target: T3, ADAM 8 (mouse) catalytic domain (Mus musculus, UniProt Q05910); assay: Inhibition assay with ADAM 8 catalytic domain; conditions: fluorescamine assay; read-out: inhibition constant, ADAM 8 (mouse)
T3 construct: The ADAM 8 catalytic domain was expressed and purified from E. coli as described (22); made in house; host or cells: E. coli
T3 sequence (Q05910 196-395 limits assumed): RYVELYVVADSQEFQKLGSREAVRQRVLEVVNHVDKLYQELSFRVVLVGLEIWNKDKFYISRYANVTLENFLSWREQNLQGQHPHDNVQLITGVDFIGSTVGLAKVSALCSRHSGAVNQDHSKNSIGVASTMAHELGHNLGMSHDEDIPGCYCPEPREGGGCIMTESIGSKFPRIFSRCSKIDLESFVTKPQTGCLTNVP
Protocol: Inhibition assays with ADAM 8. The ADAM 8 catalytic domain was expressed and purified from E. coli as described (22). A substrate based on the L-selectin cleavage site, Dnp-INorIeuQKLDKSFSMIKE-NH2 (SEQ ID NO 20), was used to monitor enzyme activity with a fluorescamine assay. From a concentrated 50 mM solution in DMSO, the substrate was diluted 1:500 in 25 mM HEPES, pH 8.0, 0.0006% Brij-35. To 100 μl of diluted substrate was added either 5 μl of buffer (Tris, pH 8.0, 150 mM KCl) or 5 μl of ADAM10 prodomain (1-10 μM). Zero time points were taken by diluting 12.5 μl of the reaction mixture into 100 μl of fluorescamine buffer (50 mM HEPES, pH 8.0, 0.2 M NaCl, 0.01 M CaCl2, 0.01% Brij-35) in a 96-well black-coated plate. Before measuring fluorescence, 3 μl of a 1% solution of fluorescamine in DMSO was added to each well. The plate was allowed to incubate for 10 min in the dark before measuring fluorescence (excitation wavelength at 390 nm, emission wavelength at 485 nm). For assays with TACE and ADAM8 prodomains, a fluorescent substrate was used to monitor activity at concentrations of prodomains ranging from 1-4.7 μM.
Calculation of inhibition constants. The amount of activity was calculated by subtracting the ADAM 10 prodomain control from the ADAM 10 prodomain with enzyme. […]

Ki [1]: > 1000 nM
Ki [2]: 17 ± 10 nM
Ki [3]: > 10 µM
B1: C173S ProADAM 10 23-213 (C-terminal His tag): mouse ADAM 10 prodomain 23-213 with cysteine 173 mutated to serine, C-terminal His tag (protein, UniProt O35598 23-213, looked up, variant C173S)
chain: NPLNKYIRHYEGLSYNVDSLHQKHQRAKRAVSHEDQFLLLDFHAHGRQFNLRMKRDTSLFSDEFKVETSNKVLDYDTSHIYTGHIYGEEGSFSHGSVIDGRFEGFIKTRGGTFYIEPAERYIKDRILPFHSVIYHEDDINYPHKYGPQGGSADHSVFERMRKYQMTGVEEGARAHPEKHAASSGPELLRKK
modifications: pro-form C-terminal His tag
notes: mouse ADAM 10 prodomain 23-213 with cysteine 173 mutated to serine, C-terminal His tag
